Measured values taken from the DeepSol protein solubility set.

Test: soluble on expression in E. coli; label from the status in PepcDB or PDB records
With “GPGSMASSSTADDHSAVAGIVASSASVCGSRDAAASPPTALPKLGSAKQQRTERAFLFDRYPSRKIALRLAYHGHVHDGLAKQKETDNTVEGLVCDALRRLRLIPEDGPHNFGRCGRTDKGVSALGNAFSLTARASCTGDAEPQLPPLDYCSMLNNVLPSTIRIVGCALVDDAFDARFSCVHRTYRYYFFHRGLNLAAMQEAAAFFLGTHNFRNFCKMDVVNVSNFVRTVFSVGLHPSEALPELISYLEIRANSFLYHQIRCIMEVLFLVGRGLEVPSVVQTLLELGDRKPTYPLADGTPLILWDCGFDNVQWQMSHCAFHAMEQELQDIGTALLIRATSATAMRSQLFRWYTGTADVFRKDTSEKDASGEDRSRAVVRRDPELRRLDGWSITGCDWTDPGTAGQMKARKRDLLYYLRTEAKNGQPLPTTTSCEEKTSQTAETIASGALAPVNYVPLLQRETERTYEEEVRELSGKKRARYEVNEAKKAAAAAAHKEVVSED” the “soluble on expression in E. coli” value was “not soluble”. For “GPGSMDDKQAFFVRCIDGKTFKMVIRGDLGKLTVGKIRRYLKSYGVQDGMQLLFNGLSLADEQVGSDFGLCNGATLHLGPPSFSEPAVPQRTHGQGFSDEAAGSRTGDPTDTPHSSLSGDSRERNSKADSTHRDPCGGLSHADPARGTATYSGGRYNVDKGIPVTATSATKTNIDRIPSADLTSHSGFPVALEVENQQLREQVELLRREVADLRQKNKAPRATVLRQDLTSIEVLQSAKSNLQELAEELGVPLQFDTNFTCVVGDDESHTVLVTFDCVTERLYIYSTLLTQIPHDGEVRAKLYELLLEGSLLSREVCGGGIGISPQNGLVLLSTTIPLRHCNSSALKDIMPVFVETVARWRSLINELLN”, the “soluble on expression in E. coli” value was “soluble”. In the case of “GPGSMDESNRVPTGEAPSDEPPLKVRRHEGGHGELRETSSGDTNPQGATLFIRCTSIHGRGELLNGFISEHREALGVAKWYNVAGDESDGRCVPTLRTDAPFECVYVRSSRKPYFLLEFNEKGDVAKKFVEKLVGLRNTLYKGSPVFVEVAKGGLTVATERLKLEKRDAARRSATAVPLSFSSDKPTGPTAFVPRAVRKR”, the “soluble on expression in E. coli” value was “soluble”. With “GPGSMDTLTHLSHTLREAMSDIVPESHPEHPFNLIPELCRKFYDLGWATGTGGGISIKMGENYYIAPSGVQKERIKPNEIFVLNASQDVVEEPRTEKQLKISECTPLFFNAYRMRGAGACLHTHSANCVLISLLCDREFRISHIEMIKGIINNETKKALGFRDTLVIPIIENTDFERDLTASMAECMERYPESCAVLVRRHGMYVWSDTWQKAKGAVECIDYLMGLAIRMRTLGLEWEPKDVK” the “soluble on expression in E. coli” value was “soluble”. In the case of “GPGSMDTRDRPLPRTPPLQTPRGSCHPPLLTVEEDVRRAGQVRQVRPTKELNCRHQTSLQLYREHRRCEAEGFKERRVILRVWVLHGQHAPGGHTRPHPTGAQDRDAQAPQLRRAVESRLSPTHYEAEGDGRLNRRHHTTTACSHQRPHILRHIRRGNKDVAP”, the “soluble on expression in E. coli” value was “not soluble”. In the case of “GPGSMEPKRSGNMACVERERERDYWRHLERLNNQRCRIDNTIPVSCAYVRPIGSMRRNPARAEQVNRDNQKLVEKMVHIMNTRGGVDTSEPWRDYNKAINSQRRRNQEQANIARENAKLLDRLERTQPTYRSEKFEADRRRNEEFAARASRYPYQPMDRTRY”, the “soluble on expression in E. coli” value was “soluble”. In the case of “GPGSMEQPKGINILITGTPGTGKTSMAEMIAAELDGFQHLEVGKLVKENHFYTEYDTELDTHIIEEKDEDRLLDFMEPIMVSRGNHVVDYHSSELFPERWFHMVVVLHTSTEVLFERLTKRQYSEAKRAENMEAEIQCICEEEARDAYEDDIVLVRENDTLEQMAATVEEIRERVEVLKVERGL”, the “soluble on expression in E. coli” value was “soluble”. With “GPGSMETTTHVVNPGEEGAYSSITEAINAAVDGDTVLLKPGLYEELPKVFKDITVTAERDASLTESETIVTNGIVIGSNATLKGLQVRGRVDVRKGHAVIEECDIHHGCDGIRVGEAAKLTVRRSRIHHCESGGDGIYFSTGSMGEVEDCDIYECRVNGVHANNARVVIARNRVRDVLFGFYFRGQSSGSVERNSVEHVSKFGIYVTEGSDPVVQGNMVRECGMHCAFVSQGGKGIWVDNSFDGSMHVHSGCDAKLGSNHVVGRLDVDPPT” the “soluble on expression in E. coli” value was “not soluble”. In the case of “GPGSMFNVVLVEPEIPPNTGNVIRLCANTGARLHLIEPLGFPLDDAKMRRAGLDYHEYAQMRVHRDWDAFVAAEAPDPARMFAFTTRGSGRFHDRAFEPGDWFVFGAETRGLAPALVDRFAPEQRVRLPMRPGNRSLNLSNTVAVVVFEAWRQAGFEGGA”, the “soluble on expression in E. coli” value was “soluble”. In the case of “GPGSMGCGDSKVRQGGPSRPPPPRGGPNSASTKVEGRANGPNEETSRVESKGSAPPEPEVNSTPVPTKPLGNGVDNSGAEKTNAPPTGSAPPAQNCSQQIELDDEGNALVLPKGEWVRTEGTPFYYSDAENLYFHPPSCQFYDPTNEMWYDPEQDEWYRDDDPAE”, the “soluble on expression in E. coli” value was “not soluble”. With “GPGSMGIIKHVAVILDVSEASLEQHVLERVRQLDEDTVVRRLSEEKAGKLPDFIKLSEDIIEKNDLRKSGEGSVESIQRFVCFVTDNKTRQNGMVAYAMHCLQIPVLSLTKGQKAKGNDDAEHWVSTILYKDLDGSHTDPLAAVNEFFTFPDKVGELLAVEGRDSQLTLQYCRELRSYLQRAWSAEVKLVGPNGCDMSEEGLDGTKCGETDNVEEQVEVESGIHAPLVKELLGNSQLESTHQNDHLLHGAMYALNRHENLPIIRYRLQRGVNIILCRPMSSSLEKLFNKFSRMRGGAEDVRRSFIDAVKSLLQFEGRWLDMPRRRVVLIREGVAHSWSAWLGNEVIHPLVDWIPVDVKAGNIADHCASLEASVKKAVRRLSR” the “soluble on expression in E. coli” value was “soluble”. In the case of “GPGSMKKNLLADRTARVFEEARESATRLAAVSDTVSRAAVPHGIRHLFYTADTQREQRQCLAKVFAATCPSLHPLRSGEGEAGDGESSDPTSAAAAAHQDYILLILPDCAKVEDFISHVLLPGQADALRILGSQDDARCTDYLVERLDHTVQVQQQQRRRAETRKFIQRTVRKAEALDGDVGYPSSAPQPSPLFRRLEREVNATAAPIHAAASESQAPAPTSLATSPAVCAADSLTASSSPLRPPRRCFITCNCNNVRGLDLPHLTHVVILAQPTTALEYAHWCGRVGRFGRPGVSVTLMARSATRHMHQFCDSLGIAFRVEKRHAEVDVNAERWLSGADAE”, the “soluble on expression in E. coli” value was “soluble”. With “GPGSMKLERSSCFEVQGCISCLTQASNEDACLASTMMNGAHIFHMGDLQHAQCGARQAVTHVETFPHGNFGEGAVISSSFVSYDSCFATGSSSGDIVLVSRHSKNVVQHYSFQNKAAVLSLKEVPNEPSLLLACSPTDAQIIDLETSTARINLHIPKPCVVGGTALTQNTLVVAAYDGKAMLYDVRRGHEPVVILAVPDQIISITSSPDTGAVATGTVSGRVFVLRCLEGNVREEAFSTGKERAPIRSVAMRNGYIAAGDTSAKLTCLDLKEDPKPTRYWDLHSLLTNESGPPSSGAEKLSSVTVPDTESWSLPAVMLQQSDLWAALSSTKYGVSHILAIPI” the “soluble on expression in E. coli” value was “not soluble”. In the case of “GPGSMLNTAFSTADGRRLPRDLTDQQKRDIEEAFRVLDVKGVSTITPNDLKVALRALGYEPDKDAVRKLVAEMDRGGVSSNLVLSEFEDVMRQRFFAEDKDDEVDLAFPLFTEGKSEFISLDDLKRVAAEVGEDIPEDVLQEIIRECDVLDRDGRISREEFNKMLKSDK”, the “soluble on expression in E. coli” value was “soluble”. In the case of “GPGSMLRAFASPILAKVPYATLFEYNHVLQKVFEAQPSKVALRCELPGMPEVQFTYGQLQRDVVALADAVVRRKEAVAQARGETSLGWLQPSKPAHVRSVFAQGERTPSCDYMKDTGFYTTSLLCGPGYTYAVSLLASWSLNQLVTPMPISQRYKDELMYVLEHSGSRSIVGNTKLLKEKLPAEYEELYVRAEADVDKIPRSASREPKQRNDSDVTSNTFFVDTVYDATLLVRDITAARDIQGTATLETEWLPPAESVCAPMRSAEDLVKRLDEEKATAKARELDRQAEILQQEHVRRNRAPMQATGGADPAGSDADGESLFCFDSAHLDELNRVYQRWYTMPSARPTKYDDCLMLYTSGTTAKPKGVVHTHASVANMVKVLQNAWQWRDTDSILHVLPWHHVHGLVNILLCAIASNARCVVTTFDDAARVAHRLEQGDITLFMAVPTVYVKLSDAVQRKFSPIEKTGFRRACMESVRLMVCGSAPLPVPTLNQFCELSGHTLLERYGMTEIGMALSQPLHPISDRHPGTVGSPLQTVKTYVHQPETAEAMEQASAKEAEYDEVGGLGIASESLFDRYWNNATATKKEVRTNAAGMRFFDTGDTVGVRLPAGKPAVYTILGRSSVDIIKSRGYKLSALEIEATLLARNDLFYEIAVVGAADAVQGESVVAIVAMQPEAARARGIAFGEGFAWHESAAVTEELKKAALQLLAPYKCPSRYIVVPEIPRNPTGKVNKKDLKKVLGLA”, the “soluble on expression in E. coli” value was “not soluble”. For “GPGSMPSGVTHSLSLSSLPVVSLLPRWHKAEVVSHRQLTPTATSAQERAKRGKTSVLAAANTAAMTATESKGFAELYHQLLQDGVQLQKELEAYYLRQEGYIRKRVAVLDEMQENIADERRCLELQHQECRAQISTTRKQAASFLSDERKVSQAVRHAQPFLAAQEAEIDKRLDELQREKEREDTALLNVMARQEALGKQEALLACRERQRFLEEQDLQKALIEMRSLNREMEERRKSLLRKHGTVADWDRKLESRERELLVCQDQLRENLKALEQEENALGIHPAQRTAVAPAVSQRTVMDDHDMSIEHDSACEEIDYED”, the “soluble on expression in E. coli” value was “not soluble”. For “GPGSMPSITTAKREYEERLVDCLTKYSCVLFVGMDNVRSQQVHDVRRALRGKAEFMMGKKTLQAKIVEKRAQAKDASAEAKHFNDQCEEYNLLSGNTGLIFTNNAVQEITSVLDAHRVKAPARVGAISPCDVIVPAGSTGMEPTQTSFFQALNIATKIAKGMVEIVTEKKVLSVGDKVDNSTATLLQKLNISPFYYQVNVLSVWDRGVLFTREDLMMTEDMVEKMLMDGLS”, the “soluble on expression in E. coli” value was “not soluble”. For “GPGSMQSASSRVPRKPAAASNLGKPSSSGRFTKPNRPQPTSSFSKTAQPDMTGRYGTSTALVASTAASHFTAGARGQSTPFVGLADRTGQEGSVFGLRAPQNDATGAAAHTKTRQAARTKVVDDASTPVVVVGPERDSVPFRLCCEALAEGCVQTYMHLFELAHRDPVCVDTLSRKFFNVPDDRLAWVQQQLSAVEVLRRQSEFEQVFTHCEQLANYFEKEGDYAEAAWYHEMVLHYMMESLDRTLEQRARHVYATFQERQGHLEEAAALYDAMYRLAVALRDEATLQDASCCLVRVHQALGETLKFSDPAAAARHYATAAEAAVRSKNVVDEGSAYSALGDVSEARGDLPLALKYQRSCRAVAQQNDLKPQECRATLRVADLEERLGLKLEASTTLHEALQLAKELGAPRQLCIATMQLGEAYRSRNQEGEALQCFDESFAAAVEAGDQELIDTVRIAMGFARGDYYLTHAYGGKGYLHLVYTDIRAQLAWMSGGTL”, the “soluble on expression in E. coli” value was “not soluble”. With “GPGSMSEELILQWAKRVSDAEEELHRMEEDINAVKQQRKLLKADIRKYEDVVASEKCDLLTSLERVEAQAKDLGAQCEATLTEKDRVEAEYMATLDAYENLHFLVREIKDAEEHLQSRDDLEACLQRESVTWAEEEHTLRRKLHELQQQQAQARRAQEAEVRELEAQLSNVEQRQRDERAGRCVEVAQAARRVVHSSRQPTPASPKPVTSAEEDAFVSANAGGAMPIRSAPLKSCLKTPVNGSTSGNAAPTAPRHTTAASAPVSRCASQSLVSDAAASGVQRQGVDGGDQPSLRLLQEMRAYSYGAPCKAGARKREFLGDATNNQ” the “soluble on expression in E. coli” value was “soluble”. In the case of “GPGSMSQLWVKRAKAEMTRHSRVLETINRVFPMPFEERRSRVGMTSYATYRWLRYFPVILVPVVVMGTLLETRDNPQEHVFTSLHLWLADHGVFRHDTVKALNPAFEDERRSIEWKANDRKWRFTGTDMPSEREIREFAAINIDHQSRRQL”, the “soluble on expression in E. coli” value was “soluble”.
